Laboratory results taken from the supplement of paper PMC12855868.

B1: library; numbered along this chain (parent)
chain: MAAAGGARLLRAASAVLGGPAGRWLHHAGSRAGSSGLLRNRGPGGSAEASRSLSVSARARSSSEDKITVHFINRDGETLTTKGKVGDSLLDVVVENNLDIDGFGACEGTLACSTCHLIFEDHIYEKLDAITDEENDMLDLAYGLTDRSRLGCQICLTKSMDNMTVRVPETVADARQSIDVGKTS

Variants of: B1
Experiment: scaled log2 fold change in cell abundance, elesclomol vs control (0 = silent mean, 1 = nonsense mean) (scaled log2 ratio); higher = higher viability under elesclomol (loss of FDX1 cuproptosis function)
Conditions: glucose 10 mM
[1] = with ABC1 FDX1 KO, elesclomol 5 nM, 14 days
[2] = with HEK293T FDX1 KO, elesclomol 40 nM, 11 days
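Also: variant abundance is its share of total variant reads in each endpoint sample, from next-generation sequencing of the integrated ORF PCR-amplified out of genomic DNA.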

Variant | scaled log2 fold change [1] | scaled log2 fold change [2]
K126N | -0.104 | -0.19
K126C | -0.0261 | -0.165
K126E | -0.285 | 0.945
K126D | 0.116 | 0.255
K126M | 0.305 | 0.341
K126T | -0.51 | -0.395
K126A | -0.285 | 0.163
K126Q | -0.973 | -0.036
I123K | 0.336 | 0.365
I123E | 0.111 | -0.217
I123R | -0.34 | 0.123
I123C | 0.148 | 0.505
I123S | 0.133 | 0.206
I123D | 0.248 | 0.132
I123N | -0.867 | -0.142
I123G | 0.293 | –
I123V | -0.0405 | –
I123L | -0.128 | -0.00641
I123Y | -0.0557 | -0.336
I123H | 0.292 | -0.438
I123Q | -0.0633 | -0.755
I123A | -0.0959 | -0.0656
I123T | 0.223 | 0.679
I123P | 0.506 | -0.674

Variant | scaled log2 fold change [1] | scaled log2 fold change [2]
I123M | 0.264 | 0.00397
I123F | -0.346 | 0.312
I123W | -0.0593 | -0.208
H116D | 0.16 | -0.115
H116Q | -0.185 | 0.198
H116T | 0.317 | -0.824
H116M | -1.26 | 0.245
H116V | 0.0823 | -0.296
H116N | -0.0564 | -0.554
H116I | -1.23 | 0.162
H116G | 0.0557 | -0.405
H116E | -0.124 | 0.106
H116A | 0.129 | 0.404
H116P | 0.152 | 0.891
H116Y | 0.484 | 1.02
H116L | -0.55 | -0.291
H116C | 0.0577 | 0.973
H116K | 0.464 | -0.0313
H116W | -0.0982 | 0.125
H116R | -0.042 | 0.647
H116F | 0.69 | 0.87
H116S | -0.0363 | 0.435
L127A | 0.297 | 1.31
L127D | 0.521 | -0.11

Variant | scaled log2 fold change [1] | scaled log2 fold change [2]
L127M | 0.152 | 0.302
L127S | 0.442 | 0.345
L127R | 0.785 | 0.151
L127G | 0.701 | -0.0303
L127W | 0.322 | 0.0443
L127F | -0.388 | -0.405
L127H | 0.038 | 0.312
L127Q | 0.446 | 0.00947
L127V | 0.0908 | 0.603
L127K | 0.682 | 0.253
L127P | 0.814 | 1.12
L127T | 0.249 | -0.0113
L127N | 0.0507 | 1.27
L127E | 0.573 | 0.536
L127Y | 0.24 | -0.426
L127I | 0.0723 | 0.119
D121A | -0.0978 | 0.0802
D121Y | -0.243 | 0.698
D121R | -0.0191 | 1.32
D121F | 0.353 | –
D121Q | 0.169 | 0.0204
D121P | -0.198 | –
D121N | -0.0427 | –
D121G | 0.178 | -0.427

Variant | scaled log2 fold change [1] | scaled log2 fold change [2]
D121V | 0.222 | 0.458
D121I | 0.217 | –
D121C | -0.164 | -0.257
D121E | 0.304 | -0.162
D121S | -0.507 | –
D121W | 0.324 | -0.123
D121H | -0.394 | -0.25
D121T | -0.0111 | –
D121M | -0.556 | 1.79
D121L | -0.202 | -0.00537
E125K | 0.48 | 0.921
E125V | 0.114 | -0.317
E125D | 0.426 | 0.469
E125L | 0.17 | 0.357
E125S | 0.239 | –
E125P | -0.165 | 0.0466
E125Q | -0.176 | -0.00485
E125A | -0.503 | -0.173
E125R | 0.109 | -0.189
E125Y | -0.278 | -0.0436
E125H | -0.583 | -0.234
E125C | -0.817 | 0.0813
E125G | -0.304 | -0.096
E125W | -0.76 | -0.135

Variant | scaled log2 fold change [1] | scaled log2 fold change [2]
E125N | -0.0561 | -0.574
E125M | 0.0258 | –
E125T | -0.0928 | 0.0298
E125F | -0.241 | 0.00284
F119L | 0.0116 | –
F119N | 0.967 | 0.538
F119Q | 0.852 | 0.755
F119M | 0.178 | 0.132
F119E | 1.04 | 1.21
F119P | 0.974 | 0.628
F119H | 0.658 | -0.0181
F119Y | 0.389 | 0.17
F119T | 0.311 | 0.547
F119A | 0.901 | 0.518
F119C | 0.133 | 0.831
F119I | 0.0519 | -0.0254
F119K | 1.05 | 1.21
F119D | 1.06 | 1.02
F119S | 1.07 | 0.993
F119W | 0.0722 | -0.0842
F119V | -0.0745 | 1.48
F119G | 1.05 | 0.397
F119R | 1.09 | 0.953
